Reference: patent US20240325557A1, “TREATMENT OF CANCER” (INNATE PHARMA, priority 2020, published 2024)

T1: Nectin-4 Mutant 7bis (A72P/G73N/K197T/S199A) (Homo sapiens, UniProt Q96NY8, A72P/G73N/K197T/S199A)
T1 construct: expressed in transfected cells; host or cells: HEK293T
T1 sequence (Q96NY8 32-510 A72P/G73N/K197T/S199A): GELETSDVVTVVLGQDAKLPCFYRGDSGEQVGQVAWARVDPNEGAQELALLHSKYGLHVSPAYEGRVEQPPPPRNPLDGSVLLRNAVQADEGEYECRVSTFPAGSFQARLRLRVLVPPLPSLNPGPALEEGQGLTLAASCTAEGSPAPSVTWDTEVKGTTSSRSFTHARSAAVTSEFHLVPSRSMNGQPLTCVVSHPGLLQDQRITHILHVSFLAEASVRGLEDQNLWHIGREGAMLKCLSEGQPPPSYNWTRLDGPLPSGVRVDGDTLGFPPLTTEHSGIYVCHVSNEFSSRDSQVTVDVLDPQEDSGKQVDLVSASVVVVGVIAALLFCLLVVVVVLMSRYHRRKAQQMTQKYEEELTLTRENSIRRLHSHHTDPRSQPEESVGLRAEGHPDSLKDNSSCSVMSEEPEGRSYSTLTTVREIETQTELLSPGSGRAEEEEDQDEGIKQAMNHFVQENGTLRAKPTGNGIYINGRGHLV

T2: Nectin-4 Mutant 3 (A76S/Q77R/E78A/S91N) (Homo sapiens, UniProt Q96NY8, A76S/E78A/Q77R/S91N)
T2 construct: expressed in transfected cells; host or cells: HEK293T
T2 sequence (Q96NY8 32-510 A76S/Q77R/E78A/S91N): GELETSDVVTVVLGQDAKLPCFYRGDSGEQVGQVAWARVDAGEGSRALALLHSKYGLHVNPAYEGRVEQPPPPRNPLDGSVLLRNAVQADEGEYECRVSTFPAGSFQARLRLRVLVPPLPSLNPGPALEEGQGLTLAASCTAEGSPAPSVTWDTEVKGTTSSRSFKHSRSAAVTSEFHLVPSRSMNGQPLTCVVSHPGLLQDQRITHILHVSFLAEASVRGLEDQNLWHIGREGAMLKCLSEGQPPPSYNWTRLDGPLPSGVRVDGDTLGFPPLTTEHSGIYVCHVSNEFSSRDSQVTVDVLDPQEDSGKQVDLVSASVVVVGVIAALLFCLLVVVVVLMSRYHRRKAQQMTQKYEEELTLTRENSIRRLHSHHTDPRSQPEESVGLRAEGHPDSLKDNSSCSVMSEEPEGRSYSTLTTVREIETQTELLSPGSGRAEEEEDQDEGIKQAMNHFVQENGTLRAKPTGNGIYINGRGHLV

T3: Nectin-4 Mutant 6 (H238A/I239T/H241Q) (Homo sapiens, UniProt Q96NY8, H238A/H241Q/I239T)
T3 construct: expressed in transfected cells; host or cells: HEK293T
T3 sequence (Q96NY8 32-510 H238A/I239T/H241Q): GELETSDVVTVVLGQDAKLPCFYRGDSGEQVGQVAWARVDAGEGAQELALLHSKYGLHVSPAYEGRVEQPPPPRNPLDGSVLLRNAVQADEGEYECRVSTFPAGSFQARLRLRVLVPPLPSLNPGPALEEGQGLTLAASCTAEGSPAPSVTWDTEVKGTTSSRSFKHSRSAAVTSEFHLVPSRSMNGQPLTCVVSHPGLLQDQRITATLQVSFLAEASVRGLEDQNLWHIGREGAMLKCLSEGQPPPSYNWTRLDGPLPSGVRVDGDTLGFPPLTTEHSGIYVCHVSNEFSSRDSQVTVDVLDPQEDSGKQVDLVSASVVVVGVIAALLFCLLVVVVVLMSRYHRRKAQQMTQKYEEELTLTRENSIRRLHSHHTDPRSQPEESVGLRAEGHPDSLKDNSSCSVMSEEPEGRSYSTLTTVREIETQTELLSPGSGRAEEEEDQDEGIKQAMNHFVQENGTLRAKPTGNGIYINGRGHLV

T4: Nectin-4 Mutant 4 (A72P/G73N/G75S) (Homo sapiens, UniProt Q96NY8, A72P/G73N/G75S)
T4 construct: expressed in transfected cells; host or cells: HEK293T
T4 sequence (Q96NY8 32-510 A72P/G73N/G75S): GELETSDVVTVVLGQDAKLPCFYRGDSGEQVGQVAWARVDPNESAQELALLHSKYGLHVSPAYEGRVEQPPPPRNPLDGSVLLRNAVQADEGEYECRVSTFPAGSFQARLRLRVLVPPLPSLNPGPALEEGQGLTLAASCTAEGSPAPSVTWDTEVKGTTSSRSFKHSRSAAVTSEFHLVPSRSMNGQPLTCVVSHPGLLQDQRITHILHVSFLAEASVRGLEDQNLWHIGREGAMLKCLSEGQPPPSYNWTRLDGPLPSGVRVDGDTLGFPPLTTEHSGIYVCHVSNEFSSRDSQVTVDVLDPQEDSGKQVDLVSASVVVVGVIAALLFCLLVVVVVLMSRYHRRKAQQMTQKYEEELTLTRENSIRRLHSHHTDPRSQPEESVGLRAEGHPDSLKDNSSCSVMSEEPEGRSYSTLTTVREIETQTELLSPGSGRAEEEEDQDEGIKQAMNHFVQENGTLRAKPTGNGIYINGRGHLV

B1: N41 (antibody, V domains shown)
VH: QVQLKQSGPGLVQPSQSLSITCTVSGFSLTNYGVHWVRQSPGKGLEWLGVIWSGGSTDYNAAFISRLSISKDTSKSQVFFKMNSLQADDTAIYYCARELIHAMDNWGQGTSVTVSS
VL: DIQMTQSPASLSVSVGETVTITCRASENIYSNLAWYQQKQGNSPQLLVFAATNLADGVPSRFSGSGSGTQYSLKINSLQSEDFGTYYCQHFWGTPTFGGGTKLEIK
B2: 5E7 (antibody, V domains shown)
VH: QVQLQQPGAELVKPGASVKLSCKASGYIFTSYWMHWVKQRPGQGLEWIGEIDPSDSYTNYNQKFKGKATLTLDKSSSTTYMQLSSLTSEDSAVYYCVRGYGNYGDYWGQGTTLTVSS
VL: DVVMTQAAFSNPVTLGTSASISCRSSKSLLHSNGITYLYWYLQKPGQSPQLLIYQMSNLASGVPDRFSSSGSGTDFTLRISRVEAEDVGVYYCAQNLELPWTFGGGTKLEIK
B3: 10B12: anti-Nectin-4 antibody, VH SEQ ID NO: 24, VL SEQ ID NO: 25, binds junction of domain C1 and V (antibody, listed as Mus musculus, V domains shown)
VH: QVQLQQPGAELVKPGASVKLSCKASGYTFTSYWMHWVKQRPGQGLEWIGEIDPSDSYTNYNQKFKGKATLTVDKSSSTAYMQLSSLTSEDSAVYYCVRGYGNYGDYWGQGTTLTVSS
VL: DIVMTQAAFSNPVTLGTSASISCRSSKSLLHSNGITYLYWYLQKPGQSPQLLIYQMSNLASGVPDRFSSSGSGTDFTLRISRVEAEDVGVYYCAQNLELPWTFGGGTKLEIK

Columns and labels:
Assay in all cases: Binding to cell surface expressed Nectin-4 point mutant
Settings in all cases: HEK-293T
[1] = molecular target: T1, Nectin-4 Mutant 7bis (A72P/G73N/K197T/S199A)
Excerpt: (§1) Combined with the published structures of the Nectin-4 domains, Nectin-4 mutations at surface exposed amino acids residues were designed. Nectin-4 domain structure was modelled based on Protein Data Bank reference: 4FRW (domains V et C1). Human Nectin-4 used was NCBI Reference Sequence: NP_112178.2, mouse Nectin-4 used was NCBI Reference Sequence: AAL79833.1, cynomolgus Nectin-4 used was NCBI Reference Sequence: XP_005541277.1, rat Nectin-4 used was NCBI Reference Sequence: NP_001102546.1. The cells expressing the Nectin-4 mutants are then be used for testing anti-Nectin-4 antibodies for loss of binding to different Nectin-4 mutants to identify antibodies that bind to the same site on Nectin-4. […] FIGS. 12A and 12B show a molecular model of the human Nectin-4 protein, indicating the position of substituted residues in mutants 7 (12A) and in mutants 7bis (12B); these mutants are in the C1 domain identify two sites at the junction of domain C1 and V domain that are on opposing faces of the Nectin-4 protein.
(§2) Nectin-4 mutants were generated by PCR. The sequences amplified were run on agarose gel and purified using the Macherey Nagel PCR Clean-Up Gel Extraction kit. The purified PCR products generated for each mutant were then ligated into an expression vector, with the ClonTech InFusion system. The vectors containing the mutated sequences were prepared as Miniprep and sequenced. After sequencing, the vectors containing the mutated sequences were prepared as Midiprep using the Promega PureYield™ Plasmid Midiprep System. HEK293T cells were grown in DMEM medium (Invitrogen), transfected with vectors using Invitrogen's Lipofectamine 2000 and incubated at 37° C. in a CO2 incubator for 48 hours prior to testing for transgene expression. The targeted amino acid mutations are shown in Table 2 below, listing the residue present in wild-type Nectin-4/position of residue/residue present in mutant Nectin-4, with position reference being to the Nectin-4 protein with leader peptide shown in SEQ ID NO: 1.

[2] = molecular target: T2, Nectin-4 Mutant 3 (A76S/Q77R/E78A/S91N)
Excerpt: as §1, §2

[3] = molecular target: T3, Nectin-4 Mutant 6 (H238A/I239T/H241Q)
Excerpt: as §1, §2

[4] = molecular target: T4, Nectin-4 Mutant 4 (A72P/G73N/G75S)
Excerpt: as §1, §2

| Molecule | association with Nectin-4 Mutant 7bis [1] | association with Nectin-4 Mutant 3 [2] | association with Nectin-4 Mutant 6 [3] | association with Nectin-4 Mutant 4 [4] |
| --- | --- | --- | --- | --- |
| B1 | + | + | + | + |
| B2 | − | + | + | + |
| B3 | − | + | + | + |
